The results in this text go back to publication PMC1592478.

The assay concerns the target human syndecan-1 with C-terminal HA tag (Syn-1-HA), stably expressed on GM00701 cells (human) (UniProt P18827). Put plainly: radioligand binding; ^125I-apoE-VLDL (2 μg/ml; in Figure 2C supplemented with 3 μg/ml apoE) on GM00701 or GM00701/Syn-1-HA cells, 4°C, 3 h, 20 mM Hepes pH 7.4, 150 mM NaCl, 2 mM CaCl2, 1% BSA; without or with unlabeled apoE-VLDL (100 μg/ml); specific binding = total minus non-competable.
UniProt P18827, sequence (P18827 23-310): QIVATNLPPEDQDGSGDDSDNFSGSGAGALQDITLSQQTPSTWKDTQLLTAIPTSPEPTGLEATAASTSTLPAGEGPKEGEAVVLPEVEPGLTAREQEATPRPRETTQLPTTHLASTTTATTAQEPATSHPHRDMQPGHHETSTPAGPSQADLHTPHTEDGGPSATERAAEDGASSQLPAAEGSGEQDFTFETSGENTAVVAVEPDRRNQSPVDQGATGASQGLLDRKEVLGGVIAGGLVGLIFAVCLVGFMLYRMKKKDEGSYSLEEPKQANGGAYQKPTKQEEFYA

Turning to “apoE-VLDL (very low density lipoprotein particles with apoB100 and apoE, from rabbit plasma) (from UniProt P18287 19-311; P17165 1-144) (complex)”, the fold increase in specific binding over control GM00701 cells is 5 fold.
